According to a protein production outcome set (Wang et al. 2014):

Test: label from the status in PepcDB records
With “MKEIESKTSAKIITDTFVRIFLIFSLLITIIVSGIVAFTSLQIRKSEGAALLNSVQTAATNGQVNWDEFKLDSEKDEKATFVRLTSPSGQREESQGTTNFLKSRKSWGNFSLLRDDIFLYSSKTSKNGTKAELWLNINVVVKSMIRAILVIIAVMIFLFFLALILIQKAARTISQPLTDIVVATDGKDVKQVPVSKNPLEVHQLSQSFNRLLNRLNQKIENEQQFVSDASHELRTPVAAIRGHVNLLKRRWHEHPEIVDESLSYIDEESMRMKVLIENLLTISRGNHLEIKKERINLSKFTDKVVSEIQLALRQKINFDIQTDLFVSMDKMALYKIIIIFLENAGKYSPSNSEITINITLENHQVDFQVADEGIGVPEEEKDNIFERFYRIDKSRSSEIPGTGLGLAIAKEYAQLNDAKVFVSNNSPKGSTFHLLMESIEN” the protein production was “failed”. With “MKEIVTIENVSFNYHNRAVFKDFNLSIQEGDFLCVLGESGSGKSTLLGLILGLLKPSLGSVKIFNETLSNNAFLRQKIGYIAQGNSLFSHLNAMQNMTFCLNLQGINKQAAQKEAKALALKMGLDESLMDKFPNELSGGQAQRVGIIRGIIHRPELILLDEPFSALDSFNRKNLQDLIKEIHQNSHATFIMVTHDESEAQKLATKTLEIKALKQEQ” the protein production was “failed”. In the case of “MKEKENIQKIIIAMIQTVVVYFSASLTLTLITPNFKSNKDLLFVLLIHYIVFYLSDFYRDFWSRGYLEEFKMVLKYSFYYIFISSSLFFIFKNSFTTTRLSFFTFIAMNSILLYLLNSFLKYYRKYSYAKFSRDTKVVLITNKDSLSKMTFRNKYDHNYIAVCILDSSEKDCYDLKHNSLRIINKDALTSELTCLTVDQAFINIPIELFGKYQIQDIINDIEAMGVIVNVNVEALSFDNIGEKRIQTFEGYSVITYSMKFYKYSHLIAKRFLDITGAIIGLLICGIVAIFLVPQIRKDGGPAIFSQNRVGRNGRIFRFYKFRSMRVDAEQIKKDLLVHNQMTGLMFKLDDDPRITKIGKFIRKTSIDELPQFYNVLKGDMSLVGTRPPTVDEYEKYNSTQKRRLSFKPGITGLWQISGRNNITDFDEIVKLDVQYINEWSIWSDIKIILLTLKVVLLGTGAK”, the protein production is reported as “failed”. With “MKEKIPFYNEKEFHYMMKKTKKGTFSGWYIINPENNSVEFSGSFNRQFKLNKPVIPVNTEYVTRKEFNEYKDSNDQRLTKIENKVDKLEIKVDKLEKKVDKLEVKVDKLVETVNAQGEDLNNFKVEVRGTLQSQGETLQLILQTLQGMSKRLDSVEGRLDSMDGRLDSMETRLDKIDPLKLEHHHHHH” the protein production was “failed”. In the case of “MKELNDIEVTCVSGGTLSGMIVGAVDGAATGMAIGGKWGGAGGFGFGALSQLVGLIVPTAMGAIAGGTVGLFTNAETAVGYLGQYRENFGPGDVGRTTI”, the protein production is reported as “failed”. With “MKELNLTQGSVPKVLLQYAVPFLIANVLQALYGGADLFVVGQYDDSASVAAVAIGSQVMQTITGIILGITTGTTVLIAIATGAKDDKKVAFTIGSSVWLFSIIGVLLTLVMVVFHGRIAELMHTPIEAMADTKSYILVCSAGILFIVGYNVVCGILRGLGDSKTPLYFVALACVINIVLDFILVGYFHLGATGAAVATITAQGVSFMISLWFLYRHGFHFEFTRKDIRLNRNLAKKVMTLGAPIALQDALINISFLIITVIVNQMGVIASASLGVVEKIIVFAMLPPMAISSAVATMTAQNYGAGLIQRMNRCLASGIGIAFVFGVSVCVYSQFLPETLTAFFTKDAAVVSMAAEYLRGYSIDCIVVSFVFCINSYFSGQGNSLFPMIHSLIATFLFRIPLSYWFSQIDSSSLFIMGFAPPLSTVVSLLICIWYLRYTRKKVYLKGTMMPAMSN” the protein production was “failed”. With “MKERRAPQPVVARCKLVLVGDVQCGKTAMLQVLAKDCYPETYVPTVFENYTACLETEEQRVELSLWDTSGSPYYDNVRPLCYSDSDAVLLCFDISRPETVDSALKKWRTEILDYCPSTRVLLIGCKTDLRTDLSTLMELSHQKQAPISYEQGCAIAKQLGAEIYLEGSAFTSEKSIHSIFRTASMLCLNKPSPLPQKSPVRSLSKRLLHLPSRSELISSTFKKEKAKSCSIM” the protein production was “failed”. In the case of “MKERVIITGANGQLGKQLQEELNPEEYDIYPFDKKLLDITNISQVQQVVQEIRPHIIIHCAAYTKVDQAEKERDLAYVINAIGARNVAVASQLVGAKLVYISTDYVFQGDRPEGYDEFHNPAPINIYGASKYAGEQFVKELHNKYFIVRTSWLYGKYGNNFVKTMIRLGKEREEISVVADQIGSPTYVADLNVMINKLIHTSLYGTYHVSNTGSCSWFEFAKKIFSYANMKVNVLPVSTEEFGAAAARPKYSIFQHNMLRLNGFLQMPSWEEGLERFFIETKSH”, the protein production is reported as “not failed”. With “MKETPRASGATNFILVGLGVIIALLGLLLAAGGVKLAGLGGSWYFLIGGLAMAIAGVLIARRKKAGAWLYAVFLVGTAIWALIDAGLVFWPLFSRLFMFGAIGMVVALVYPLLARANGASAGRGAYGVAGVMAVVLVVAVGNMFVAHPSVAPTGKGPGMTPVETGKEQKDWAHYGNTEGGSRFAALDQINRDNVNKLKVAWTYQTGDVAISDGNGAEDQLTPLQIGSKVFICTPHNNLIALDADTGKELWKNEINAQSKVWQRCRGMAYFDATAAIAQPTQPNSSPITGVSVAAGANCQRRLLTNTIDGRLIAVDADTGEFCQGFGNNGQVDLKAGLGDVPDSYYQLSSAPLMAGTTVVVGGRVADNVQTDMPGGVIRGFDVITGEMRWAFDPGNPEDRQAPQGDKTYVRSTPNSWAPMSYDPAMNTVFLPMGSSSTDIYGVERSKLDHTYGASVLALDATTGNQKWVFQTVHNDLWDFDLPMQPSLIDFTKDDGQSVPAVVIGTKAGQIYVLDRATGKPLTQVDEVPVKPSNIPNEPYSPTQPKSVGMPQIGAQTLTESDMWGATPYDQLLCRIDFKKMRYDGLYTAPGTDLSLSFPGSLGGMNWGSISTDPVHGFIFVNDMRLGLWIQMIPSQNKGGAASGGEALNTGMGAVPLKGTPYAVNKNRFLSVAGIPCQAPPFGTLTAIDMKTRQVAWQVPVGTVEDTGPLGIRMHLPIKIGLPTLGGTLSTQGGLVFIAGTQDFYLRAYDSSNGNEIWKARLPVGSQGGPMTYVSPKTGKQYVVITAGGARQSTDRGDYVISYALP” the protein production was “failed”. For “MKEVRIVFQPGEISVPVAAGTTIMEAMNRSGLGEDFPCGGRGKCGKCRVKVREGREDFTAIDEDHLTAQELAEGVRLACATKINRDMMVEMQSPKKLQHHILIDSAARAFHIHPHLVKVFAEIAQPSLSEHKSDWQRLQESLAGLGCSVHDLQAPLSVLRRLPDTLRESTNRVTTIVYGSQVLGVEQGDTTGTLLGMAFDIGTTTIVGYLLDLNSGRELEVVSTLNPQAQYGGDVISRITFAGKEEKGLDTLHQAVTGAMNRLIGEAVDKAGVSRTQLYGISVAANTTMHHLFLGITPRSIGMSPYVSAINQGLVVAPGELGLEINKAGRVFVLPNIAGFVGADTTAVLLASDLEKSDHVTLILDIGTNGEIVLGSKNRMVACSAAAGPAFEGAQITSGMRGADGAIDHISFDHGLSYTVIGNGRPIGICGSALLDGVAGFVELGMINKRGKFLEPEKLTHPSALKLKDRLIKYEETWAFQLVEAGQTRHGRPILITQNDIRELQLAKGAIAAGVRILQEAMGIECEDIKEVLLAGAFGNYLNPHSACVIGLIPRELESRIKTIGNAAGNGAKIALLSAQEFSRAKDLAGGVSFVELGSYPGFNTIFAQNTYFKLDLEHHHHHH”, the protein production was “not failed”. For “MKEVTPRFVELGQVSAIRTEPEIAYRSNQGVTRQRQQTKVFKLVSTYDKVAVKNAIRAAYRQVFERDLEPYIINSEFTALESKLSNNEINVKEFIEGLGTSELYMKEFYAPYPNTKVIEMGTKHFLGRAPLNQKEIQQYNQILASQGLKAFIGAMVNGMEYLQTFGEDTVPYRRFPTLPAANFPNTERLYNKLEHHHHHH”, the protein production was “not failed”. In the case of “MKEYLTRSNISYFSIGSGTPIIFLHGLSLDKQSTCLFFEPLSNVGQYQRIYLDLPGMGNSDPISPSTSDNVLETLIEAIEEIIGARRFILYGHSYGGYLAQAIAFHLKDQTLGVFLTCPVITADHSKRLTGKHINILEEDINPVENKEYFADFLSMNVIINNQAWHDYQNLIIPGLQKEDKTFIDQLQNNYSFTFEEKLKNINYQFPFKIMVGRNDQVVGYQEQLKLINHNENGEIVLLNRTGHNLMIDQREAVGFHFDLFLDELNSNN”, the protein production is reported as “not failed”. For “MKFAVAVSGDRVNGPGESEEVQIYETDGGNVRLIEKYSNPALNATAARGVFMLKSALDHGANALVLSEIGSPGFNFIKNKMDVYIVPEMPVADALKLILEGKVSPATAPTHDHGHHH”, the protein production was “not failed”. In the case of “MKFDRHRRLRSSATMRDMVRENHVRKEDLIYPIFVVEKDDVKKEIKSLPGVYQISLNLLESELKEAYDLGIRAIMFFGVPNSKDDIGTGAYIHDGVIQQATRIAKKMYDDLLIVADTCLCEYTDHGHCGVIDDHTHDVDNDKSLPLLVKTAISQVEAGADIIAPSNMMDGFVAEIRRGLDEAGYYNIPIMSYGVKYASSFFGPFRDAADSAPSFGDRKTYQMDPANRLEALRELESDLKEGCDMMIVKPALSYLDIVRDVKNHTNVPVVAYNVSGEYSMTKAAAQNGWIDEERVVMEQMVSMKRAGADMIITYFAKDICRYLDK”, the protein production is reported as “failed”. For “MKFEILQQLNAERAARRPAIVVTDTATGAQRLVKAADIAADPLAAELGKQLRMGKSASIEIDGRKLFLNVYAPTAKLVIVGAVHISQALAPLARSLGYDVTVVDPRTAFASPERFPDVPLIAEWPDVALPPLNIDHYTAFVALTHDPKIDDPALLHAFARDCFYIGALGSKKTHAKRLERLKGQGASDADLGRIHAPIGLAIGAVSPSEIAVSIMAEITAALRLPASSKAAAA”, the protein production was “failed”. With “MKFEKRQVYYVVITFAICYAIQAYWGAVSNILTTLHKAIFPFLMGAGIAYIINIVMSVYERLYIKLFKGSRLLMAIKRSVSMILSYATFIGLIVWLFSIVIPDLISSLSSLLVIDTGALAKLVNNLNENKQISEVLNYMGTDKDLVSTLSGYSQQILKQVLSVLTNLLTSVSSIAATLLNVFVSFIFSIYVLANKEQLGRQFNLLIDTYLGSTGKTFHYVRHILHQRFHGFFVSQTLEAMILGSLTVIGMLIFQFPYALTVGVLVAFTALIPVVGAYIGVTIGFILIATESLTEAFLFVLFLILLQQFEGNVIYPKVVGGSIGLPSMWVLMAITIGGALWGILGMLLAVPVAATIYQIVKDHIIKRQTLRNCARTYR” the protein production was “failed”. In the case of “MKFESYDLAPGIKKSLAEAGFNRPTDIQFKSIPPILAGEDVLAIAQTGTGKTAAFVIPVLNTLINVKKSEHTDISCLVMAPTRELAVQISEVFKKIGAYTRLRTVCITGGVEQEAQIAAADYGIDILVATPGRMFDLIYQKHIKITRVKILVLDEADHMLDLGFIKDIQDVKKFLPARHQTLFFSATINEEIKKLAYSLVKNPIRIQIAPKDRVSKNITHSVAFIGMDDKRFFLERLLKEHPESKVIVFVRTQVRADRVQAAMERVGLKSVTMHGGKEQQARDAAMDAFKNGTVHVLIATDISARGIDIAGVEYVVNYDMPEVAENYVHRVGRTGRGVSKGFAISFCSMEEKPVLDEVEEFLGKEINVIEITGKDYDATLDLTEDVNDNWKALLKEADAETTKKYVPKKKKKK”, the protein production is reported as “failed”. In the case of “MKFFGEIAERAGVPSVMGEILAGILFGALFLDVETGIITFFAQLGSIFLLFTAGYKEVSLRDLRPAVLVAFIPTLTQLVFAFAFGFMLGKIFNFTFLQSLFMAVALSPTAIGVVIRILIDLNYLSSRPGLVMLSSAVLDDIIAISLLSLIVTFARFNRAPSALAVLTISGKILLFLLIMYILGKYFFPRLFVHAQKMHAKEAVFSLVVMTALFSSYLAELFELHATIGAFIGGMLISEIPLAKIPDVQSKVEGLAYGILIPLFFAFIGYSIDLYALVKAGIFVPVVTLLALSGKLIGGFIGSKAIGFNFCESLAFGAGVMPRAGIELVMLTIGRGIGIIGEEIFSAMVFMVIVSILISPSALKFAIQAERKNKTGNELKVG”, the protein production is reported as “failed”.
